Reference: the supplement of paper PMC9112550, “Optimization of the antimicrobial peptide Bac7 by deep mutational scanning” (BMC Biology, 2022)
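Note: peptides expressed intracellularly from a pBAD plasmid library in pooled LB shake-flask culture, induced with 0.3% L-arabinose, DNA abundance read by NGS, three biological replicates, DESeq2 with apeglm shrinkage.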

What follows are sequences tested on Escherichia coli TOP10 (assay: shrunken log2 fold change of peptide-encoding DNA abundance (4.5 h post-induction vs induction); higher = less antimicrobial activity (less host growth inhibition)). Details: time post-induction: 4.5 h; library: site-saturation at positions 5, 18, 19, 20.
RRIRDRPPRLPRPRPRPQSPPRP was tested, and the “shrunken log2 fold change” value was 0.0974.
For RRIRFRPPRLPRPRPRPNEQPRP, the “shrunken log2 fold change” value was 0.027.
With RRIRTRPPRLPRPRPRPWHRPRP the “shrunken log2 fold change” value was -0.126.
With RRIRKRPPRLPRPRPRPTQCPRP the “shrunken log2 fold change” value was 0.567.
In the case of RRIRGRPPRLPRPRPRPRDWPRP, the “shrunken log2 fold change” value is reported as 1.25.
RRIRERPPRLPRPRPRPLHVPRP was tested, and the “shrunken log2 fold change” value was -0.268.
RRIRRRPPRLPRPRPRPNIAPRP was tested, and the “shrunken log2 fold change” value was -0.109.
In the case of RRIRVRPPRLPRPRPRPGVLPRP, the “shrunken log2 fold change” value is reported as 0.0138.
With RRIRDRPPRLPRPRPRPVYHPRP the “shrunken log2 fold change” value was -0.0857.
With RRIRVRPPRLPRPRPRPNRKPRP the “shrunken log2 fold change” value was -0.0231.
For RRIRHRPPRLPRPRPRPQWFPRP, the “shrunken log2 fold change” value was -0.0606.
In the case of RRIRNRPPRLPRPRPRPMHMPRP, the “shrunken log2 fold change” value is reported as -0.00926.
For RRIRHRPPRLPRPRPRPWCMPRP, the “shrunken log2 fold change” value was -0.0194.
In the case of RRIRHRPPRLPRPRPRPFVTPRP, the “shrunken log2 fold change” value is reported as -0.188.
For RRIRLRPPRLPRPRPRPLMIPRP, the “shrunken log2 fold change” value was -0.288.
For RRIRRRPPRLPRPRPRPKPHPRP, the “shrunken log2 fold change” value was 0.536.
For RRIRSRPPRLPRPRPRPSIMPRP, the “shrunken log2 fold change” value was -0.196.
RRIRPRPPRLPRPRPRPYCWPRP was tested, and the “shrunken log2 fold change” value was -0.473.
For RRIRLRPPRLPRPRPRPIIKPRP, the “shrunken log2 fold change” value was -0.527.
For RRIRARPPRLPRPRPRPNKMPRP, the “shrunken log2 fold change” value was -0.177.
For RRIRNRPPRLPRPRPRPMVNPRP, the “shrunken log2 fold change” value was -0.00142.
For RRIRMRPPRLPRPRPRPDITPRP, the “shrunken log2 fold change” value was 2.12.
RRIRRRPPRLPRPRPRPMVKPRP was tested, and the “shrunken log2 fold change” value was 0.0693.
For RRIRGRPPRLPRPRPRPDTLPRP, the “shrunken log2 fold change” value was 0.169.
For RRIRIRPPRLPRPRPRPVQFPRP, the “shrunken log2 fold change” value was -0.303.
With RRIRCRPPRLPRPRPRPSASPRP the “shrunken log2 fold change” value was 0.165.
With RRIRWRPPRLPRPRPRPETEPRP the “shrunken log2 fold change” value was 0.411.
In the case of RRIRERPPRLPRPRPRPNCSPRP, the “shrunken log2 fold change” value is reported as -0.202.
For RRIRIRPPRLPRPRPRPYRVPRP, the “shrunken log2 fold change” value was -0.0849.
RRIRVRPPRLPRPRPRPDFSPRP was tested, and the “shrunken log2 fold change” value was -0.373.
RRIRWRPPRLPRPRPRPFDWPRP was tested, and the “shrunken log2 fold change” value was 0.344.
For RRIRDRPPRLPRPRPRPKNHPRP, the “shrunken log2 fold change” value was -0.195.
RRIRSRPPRLPRPRPRPDWSPRP was tested, and the “shrunken log2 fold change” value was 0.276.
In the case of RRIRPRPPRLPRPRPRPFTKPRP, the “shrunken log2 fold change” value is reported as -0.148.
For RRIRYRPPRLPRPRPRPENQPRP, the “shrunken log2 fold change” value was -0.222.
For RRIRIRPPRLPRPRPRPGPNPRP, the “shrunken log2 fold change” value was -0.113.
RRIRFRPPRLPRPRPRPIMKPRP was tested, and the “shrunken log2 fold change” value was -0.679.
RRIRGRPPRLPRPRPRPAHNPRP was tested, and the “shrunken log2 fold change” value was 0.157.
In the case of RRIRVRPPRLPRPRPRPTPKPRP, the “shrunken log2 fold change” value is reported as 0.297.
For RRIRIRPPRLPRPRPRPCPPPRP, the “shrunken log2 fold change” value was -0.328.
In the case of RRIRMRPPRLPRPRPRPFRMPRP, the “shrunken log2 fold change” value is reported as 0.00199.
For RRIRTRPPRLPRPRPRPDQNPRP, the “shrunken log2 fold change” value was 0.0691.
For RRIRDRPPRLPRPRPRPGRHPRP, the “shrunken log2 fold change” value was 0.186.
In the case of RRIRLRPPRLPRPRPRPAKCPRP, the “shrunken log2 fold change” value is reported as -0.0859.
With RRIRHRPPRLPRPRPRPKLKPRP the “shrunken log2 fold change” value was -0.0873.
In the case of RRIRCRPPRLPRPRPRPVSAPRP, the “shrunken log2 fold change” value is reported as 0.15.
With RRIRQRPPRLPRPRPRPYCLPRP the “shrunken log2 fold change” value was -0.423.
For RRIRFRPPRLPRPRPRPMPQPRP, the “shrunken log2 fold change” value was -0.0791.
With RRIRWRPPRLPRPRPRPRECPRP the “shrunken log2 fold change” value was 0.605.
RRIRERPPRLPRPRPRPKIAPRP was tested, and the “shrunken log2 fold change” value was -0.147.
For RRIRMRPPRLPRPRPRPQLQPRP, the “shrunken log2 fold change” value was 0.165.
RRIRYRPPRLPRPRPRPGQYPRP was tested, and the “shrunken log2 fold change” value was -0.414.
With RRIRMRPPRLPRPRPRPPTQPRP the “shrunken log2 fold change” value was 0.785.
RRIRYRPPRLPRPRPRPHITPRP was tested, and the “shrunken log2 fold change” value was -0.538.
For RRIRGRPPRLPRPRPRPWFQPRP, the “shrunken log2 fold change” value was 0.0619.
With RRIRDRPPRLPRPRPRPKHMPRP the “shrunken log2 fold change” value was -0.192.
With RRIRIRPPRLPRPRPRPLVDPRP the “shrunken log2 fold change” value was 0.126.
For RRIRDRPPRLPRPRPRPAINPRP, the “shrunken log2 fold change” value was -0.117.
With RRIRNRPPRLPRPRPRPSMHPRP the “shrunken log2 fold change” value was -0.805.
In the case of RRIRKRPPRLPRPRPRPFNAPRP, the “shrunken log2 fold change” value is reported as 0.0749.
For RRIRRRPPRLPRPRPRPTKKPRP, the “shrunken log2 fold change” value was 0.253.
With RRIRTRPPRLPRPRPRPCLWPRP the “shrunken log2 fold change” value was -0.0838.
In the case of RRIRERPPRLPRPRPRPNYAPRP, the “shrunken log2 fold change” value is reported as -0.0181.
With RRIRNRPPRLPRPRPRPMPVPRP the “shrunken log2 fold change” value was -0.139.
In the case of RRIRPRPPRLPRPRPRPQTFPRP, the “shrunken log2 fold change” value is reported as -0.495.
In the case of RRIRDRPPRLPRPRPRPEFGPRP, the “shrunken log2 fold change” value is reported as 0.914.
With RRIRKRPPRLPRPRPRPDEIPRP the “shrunken log2 fold change” value was 0.0203.
In the case of RRIRCRPPRLPRPRPRPFNVPRP, the “shrunken log2 fold change” value is reported as -0.146.
RRIRERPPRLPRPRPRPHSRPRP was tested, and the “shrunken log2 fold change” value was -0.0374.
In the case of RRIRSRPPRLPRPRPRPNFTPRP, the “shrunken log2 fold change” value is reported as -0.0286.
For RRIRFRPPRLPRPRPRPYHTPRP, the “shrunken log2 fold change” value was -0.0117.
RRIRQRPPRLPRPRPRPCWPPRP was tested, and the “shrunken log2 fold change” value was 0.193.
RRIRARPPRLPRPRPRPVHTPRP was tested, and the “shrunken log2 fold change” value was 0.375.
In the case of RRIRFRPPRLPRPRPRPNAPPRP, the “shrunken log2 fold change” value is reported as 0.0925.
With RRIRMRPPRLPRPRPRPQPFPRP the “shrunken log2 fold change” value was 0.211.
